Values belong to the binder of their own block, whether it stands above or below them.
Biological target: T1, HLA A*0201 on T2 cells (human)
T1 construct: MHC class I on the surface of T2 cells; surface level read with FITC-labeled anti-HLA A,B,C (W6/32)
Assay: HLA stabilization assay on T2 cells, flow cytometry with anti-HLA A,B,C (W6/32)
Procedure: T2 cells were pulsed with 100 μg/ml peptide in serum-free RPMI containing 1 μg/ml β-2-microglobulin (Sigma) for 16 h. Cells were then washed and incubated for 4 h in the presence of 5 μg/ml brefeldin A (Sigma), and then stained with FITC-labeled anti-HLA A, B, C (clone W6/32, BD Bioscience).

binding result: binds
B1: 10-mer SLIAAAAFCL (10-mer 1) (peptide)
peptide: SLIAAAAFCL

binding result: binds
B2: CCNA1 341-351 peptide SLIAAAAFCLA (peptide)
peptide: SLIAAAAFCLA
notes: Synthetic peptide; also called the 11-mer

binding result: binds
B3: CCNA1 227-235 peptide FLDRFLSCM (peptide)
peptide: FLDRFLSCM
notes: Synthetic peptide; also called the 9-mer
